The test system of series [1] is PNA-Caspase 3 dual-labeled peptide chimera: PNA-Linker-Cys His His His His His His Asp Glu Val Asp Ala Lys-(C18-spacer)-Cy3.
For series [2], the system named is biotinylated Caspase 3 peptide substrate with end-labeled fluorescent dye Cy5.

For Caspase 6, the results for the “percentage of the residual assay intensity ratio relative to the negative control” value with PNA-peptide chimera III, in the series with PNA-peptide chimera II and with PNA-peptide chimera I were 79.08%, 41.18% and 91.80%, respectively.
Caspase 3: the “percentage of the residual assay intensity ratio relative to the negative control” value is recorded as 112.03% with PNA-peptide chimera III, 82.35% with PNA-peptide chimera II and 53.48% with PNA-peptide chimera I. In series [1], the “fluorescent Cy3/Cy5 signal ratio (Caspase 3 at 0 to 4 ng/µl)” value was “the fluorescent Cy3/Cy5 signal ratio decreases from approximately 1 to 0.6”. Besides, the “Cy5 signal intensity at 1000 ms integration of uncut substrate (Caspase 3 at 8 to 0 microgram/ml)” value in series [2] is on record as “The Cy5 signal intensity at 1000 ms integration increased from about 2600 to 5200 units for a decreasing Caspase 3 concentration ranging from 8 to 0 microgram/ml”.
In the case of Caspase 8, the figures for the “percentage of the residual assay intensity ratio relative to the negative control” value with PNA-peptide chimera III, in the series with PNA-peptide chimera II and in the series with PNA-peptide chimera I were 59.89%, 69.41% and 73.77%, respectively.

For the origin of these results see patent US20040038217.
